Measured values from patent publication US20130344125A1, “DRUG DELIVERY DEVICE” (priority 2010, published 2013).
Where no end group is shown, it is not given here.

Test: Particle size and size distribution of nano-lipobubbles by dynamic light scattering (Zetasizer NanoZS)
Assay type: physicochemical
Conditions: 25° C., deionized water, extruded through 0.22 μm filter
Description: Particle size and size distribution of synthetic peptide ligands, non-targeted nano-lipobubbles and targeted nano-lipobubbles were analyzed by a Zetasizer NanoZS instrument (Malvern Instruments (Pty) Ltd., Worcestershire, UK) at 25° C. Samples were suspended in deionized water, and then extruded through a 0.22 μm pore size polycarbonate membrane filter prior to analysis. Each analysis was performed in triplicate.
The physicochemical properties of the targeted nano-lipobubbles in terms of size distribution and zeta-potential were examined using the standard method of dynamic light scattering measurement (Zetasizer NanoZS, Malvern Instrument). […] The diameter of synthetic peptide ligand (KVLFLS 9 SEQ ID NO: 2)) alone was in the range of 366±41 nm. When 1 mol % of the linear synthetic peptide ligand incorporated or coupled with circular non-targeted nano-lipobubbles to generate targeted nano-lipobubbles, the size distribution increased from 129 nm to 270 nm when it was compared with non-targeted nano-lipobubbles. This confirms the successfully incorporation of the synthetic peptide ligand on the surface of non-targeted nano-lipobubbles. The overall zeta potential or surface charge of the targeted nano-lipobubbles was −29 mV.

## KVLFLS (KVLFLS-NH2) [Synthetic 6 amino acid peptide ligand from human apolipoprotein A-1 targeting the SEC receptor]
  diameter (size distribution): 366±41 nm
